Experimental findings from paper PMC7038936 (Nucleic Acids Research, 2020) are described below.

Data set [1] concerns the target RPA70AB (RPA70 181-422), tandem ssDNA-binding domains A and B of RPA70 (human, UniProt P27694 181-422). As to the kind of experiment: SEC-MALS. (In general: In gel filtration, larger molecules generally elute earlier.)
A further data set addresses XPA full length M2 (human, UniProt P23025 1-273, E106K;F112A). As to the kind of experiment: EMSA. (In general: Mobility shift assays separate free from complexed probe on a gel.)
Data set [2] concerns the target XPA globular core (XPA98-219);RPA70AB (human;human?, UniProt P23025;P27694 98-219;181-422, |). Put plainly: NMR.
Another data set addresses RPA70AB (UniProt P27694 181-422). Put plainly: NMR.

Sequence of RPA70AB (RPA70 181-422), tandem ssDNA-binding domains A and B of RPA70 (P27694 181-422): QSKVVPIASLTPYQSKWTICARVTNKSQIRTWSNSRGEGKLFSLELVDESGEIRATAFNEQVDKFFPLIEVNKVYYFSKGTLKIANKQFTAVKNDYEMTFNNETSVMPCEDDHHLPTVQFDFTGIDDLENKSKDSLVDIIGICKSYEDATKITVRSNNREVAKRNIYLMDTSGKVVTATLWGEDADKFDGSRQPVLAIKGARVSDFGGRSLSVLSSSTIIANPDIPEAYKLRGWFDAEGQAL
Sequence of RPA70AB (P27694 181-422): as above
Sequence of XPA globular core (XPA98-219);RPA70AB (P27694 181-422, one chain of several): as the sequence (P27694 181-422) above
Sequence of XPA full length M2 (P23025 whole entry E106K/F112A): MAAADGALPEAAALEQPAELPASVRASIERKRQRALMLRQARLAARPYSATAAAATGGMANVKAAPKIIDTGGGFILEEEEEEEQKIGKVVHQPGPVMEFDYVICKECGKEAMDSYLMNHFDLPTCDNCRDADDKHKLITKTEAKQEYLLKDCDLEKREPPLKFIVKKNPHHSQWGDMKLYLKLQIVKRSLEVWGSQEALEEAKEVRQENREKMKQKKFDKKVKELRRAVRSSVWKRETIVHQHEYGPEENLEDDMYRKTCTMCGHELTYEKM

B1: XPA DNA-binding domain (XPA 98-239), wild type (domain or fragment, human, UniProt P23025 98-239, looked up)
chain: MEFDYVICEECGKEFMDSYLMNHFDLPTCDNCRDADDKHKLITKTEAKQEYLLKDCDLEKREPPLKFIVKKNPHHSQWGDMKLYLKLQIVKRSLEVWGSQEALEEAKEVRQENREKMKQKKFDKKVKELRRAVRSSVWKRET
In the case of B1, in data set [1], the binding result is “binds”.

B2: FAM three-way junction (EMSA) (structured_DNA)
DNA 1: GTTCGTCAGGATTCCAATTCGTGCAGGCAT
DNA 2: ATGCCTGCACGAATTAAGCCATTCGTAATCATGGT
DNA 3: ACCATGATTACGAATGGCTTGGAATCCTGACGAAC
For the molecule B2, in the data set with XPA full length M2, the binding result is listed as “binds”.
On to CCCCCCCC (ssDNA) [dC8], for which the binding result (in data set [2]; in the data set with RPA70AB) was “binds” each time.
